Experiment: soluble on expression in E. coli; label from the status in PepcDB or PDB records

Sequence | soluble on expression in E. coli
MKEYRIDDLAREARVSVRNVRVYQDRGLLPPPRKQGRTGWYNESHLARLHLIGRMLDRGYTFATISELLTAAHYGLQVKDVLETDDPGSRWKKRRRAARLTIAELKRMFGAQTTEANIAKGTELGVLVPAGDDYSVNDPRLVEAAQVLVDAGIPLEAVLEQTAAVRRDLSDVAARFVAVVADRYLAAEGEPLELDEAKVSEIARLVDQMRPLAHDAVQSLFEEAMEEQISKALERAARQLGETPGPATSTDTNRAS | not soluble
MSTTAEETPTQALPTQTRTLTGWGRTAPTTAQVLSTPDVEVIARAVAQVAEQNESKPAHLQRGVIARGLGRSYGDPAQNAGGLVIDMNALNRIHRIDRDTHLVEVDAGVNLDQLMKAALPFGLWVPVLPGTRQVTIGGAIGSDIHGKNHHSAGSFGNHVVSLDLLTADGKVRTLTPKGGRNDPKGALFWATIGGMGLTGIILKATIKMTPTETAYFIADGDVTQTLDETIALHSDGSESNYEYSSAWFDAIAAPPKLGRAAISRGSLAKLDQLPAKLQKNPLAFDAPQLLTFPDVFPNGLANKFNFSMIGELWFRKSGTYRDKVQNLTQFYHPLDMFGEWNRAYGSNGFLQYQFVVPTTAVEEFKAIIRDIQKSGHYSFLNVFKLFGEGNQAPLSFPIPGWNICVDFRIKPGLNEFVTELDKRVLKFGGRLYTAKDSRTTAETFHAMYPRIDEWIATRRKYDPTNVFASDMSRRLEL | not soluble
MYRTHYSSEITEELNGQKVKVAGWVWEVKDLGGIKFLWIRDRDGIVQITAPKKKVDPELFKLIPKLRSEDVVAVEGVVNFTPKAKLGFEILPEKIVVLNRAETPLPLDPTGKVKAELDTRLNNRFMDLRRPEVMAIFKIRSSVFKAVRDFFHENGFIEIHTPKIIATATEGGTELFPMKYFEEDAFLAESPQLYKEIMMASGLDRVYEIAPIFRAEEHNTTRHLNEAWSIDSEMAFIEDEEEVMSFLERLVAHAINYVREHNAKELDILNFELEEPKLPFPRVSYDKALEILGDLGKEIPWGEDIDTEGERLLGKYMMENENAPLYFLYQYPSEAKPFYIMKYDNKPEICRAFDLEYRGVEISSGGQREHRHDILVEQIKEKGLNPESFEFYLKAFRYGMPPHGGFGLGAERLIKQMLDLPNIREVILFPRDRRRLTP | soluble
MKLQQLKYALEVYQHNLNVSEAAEALFTSQPGISKQIKLLEEEIGIQIFIRSGKRVVSVSQPGKVVLDIAERILRDVQNIKNIGSEFTGQDSGSLTVATTHTQARYALPLIVADFVKRYPKVNLTIKQGSPAAIARMVTSGEADLAIVTERIDDHPELGKLPCYDWTHAVIVPNDHPLLECRNPLRIEDLARFPLITYEFAFNAGSSIARAFSKARLEQPDVALAAADTDVLKTYVRLGLGVGLMAKMAYNPDTDGDLQLVDAAHLFEPSPTWIALRSDTYLRGYAYDFIQAFAPHLTREKVDRILYTPISEDFSI | soluble
MEFEFIRNTLMGEYYVKCSMGHEIVGRWLQEEIGKDPTMIAQVEALIDKAFSLPSQEHTLTGTEISLMIQGDEVLVQENALSHDYDVEMESEFDFYDAESTASCGIEDFVALIEQWKDFLNI | not soluble
TQAMEGLLHYINPAHAISLLSALNEERLKGQLCDVLLIVGDQKFRAHKNVLAASSEYFQSLFTNKENESQTVFQLDFCEPDAFDNVLNYIYSSSLFVEKSSLAAVQELGYSLGISFLTNIVSKTPQAPFPTCPNRKKVFVEDDENSSQKRSVIVCQSRNEAQGKTVSQNQPDVSHTSRPSPSIAVKANTNKPHVPKPIEPLHNLSLTEKSWPKDSSVVYAKSLEHSGSLDDPNRISLVKRNAVLPSKPLQDREAMDDKPGVSGQLPKGKALELALKRPRPPVLSVCSSSETPYLLKETNKGNGQGEDRNLLYYSKLGLVIPSSGSGSGNQSIDRSGPLVKSLLRRSLSMDSQVPVYSPSIDLKSSQGSSSVSSDAPGNVLCALSQKSSLKDCSEKTALDDRPQVLQPHRLRSFSASQSTDREGASPVTEVRIKTEPSSPLSDPSDIIRVTVGDAATTAAASSSSVTRDLSLKTEDDQKDMSRLPAKRRFQADRRLPFKKLKVNEHGSPVSEDNFEEGSSPTLLDADFPDSDLNKDEFGELEGTRPNKKFKCKHCLKIFRSTAGLHRHVNMYHNPEKPYACDICHKRFHTNFKVWTHCQTQHGIVKNPSPASSSHAVLDEKFQRKLIDIVREREIKKALIIKLRRGKPGFQGQSSSQAQQVIKRNLRSRAKGAYICTYCGKAYRFLSQFKQHIKMHPGEKPLGVNKVAKPKEHAPLASPVENKEVYQCRLCNAKLSSLLEQGSHERLCRNAAVCPYCSLRFFSPELKQEHESKCEYKKLTCLECMRTFKSSFSIWRHQVEVHNQNNMAPTENFSLPVLDHNGDVTGSSRPQSQPEPNKVNHIVTTKDDNVFSDSSEQVNFDSEDSSCLPEDLSLSKQLKIQVKEEPVEEAEEEAPEASTAPKEAGPSKEASLWPCEKCGKMFTVHKQLERHQELLCSVKPFICHVCNKAFRTNFRLWSHFQSHMSQASEESAHKESEVCPVPTNSPSPPPLPPPPPLPKIQPLEPDSPTGLSENPTPATEKLFVPQESDTLFYHAPPLSAITFKRQFMCKLCHRTFKTAFSLWSHEQTHN | soluble
MLDKLDRLEEEYRELEALLSDPEVLKDKGRYQSLSRRYAEMGEVIGLIREYRKVLEDLEQAESLLDDPELKEMAKAEREALLARKEALEKELERHLLPKDPMDERDAIVEIRAGTGGEEAALFARDLFNMYLRFAEEMGFETEVLDSHPTDLGGFSKVVFEVRGPGAYGTFKYESGVHRVQRVPVTETQGRIHTSTATVAVLPKAEEEDFALNMDEIRIDVMRASGPGGQGVNTTDSAVRVVHLPTGIMVTCQDSRSQIKNREKALMILRSRLLEMKRAEEAERLRKTRLAQIGTGERSEKIRTYNFPQSRVTDHRIGFTTHDLEGVLSGHLTPILEALKRADQERQLAALAEG | soluble
MSLILTLDPQVAGASGDMVLGALIAVGADPNRLEEVVHEVSSLGHEVDVHVHEIQKRGIRAVRVEVDAEGDLRDPDELREAVKTVAENVLEDRWRELPELALKYLLRAEERVHGDLCHLHELGSSDTVVDLVGTAALLEDLNPKASEVLPPNVGSGTVETEHGRLPVPAPAVVEVLSEWDVGIVREGEGELLTPTGAALLRTIDELLPDPPPPYRVKRQGFGAGTKDLPDRPNVLRALICEPGGSGEHVRIVETSVDDVDGEAVGELIEAVLQLEGVHDVEVLHGFGKKGRPRFVIRVVTEDRPGIEREVFRELFRWTGTLGARVYRCTRVTADRRIVDVDGIRVKVSRFEDVHHAKPEWEDVRRKVDRESAPLTRARLVGDLRKRYEGDGEDGAGDEGHHHHHH | soluble
MEIDEGKYECEACGYIYEPEKGDKFAGIPPGTPFVDLSDSFMCPACRSPKNQFKSIKKVIAGFAENQKYG | soluble
MFEPMMEMSDDAVIKVVGVGGGGGNAVEHMVRESIEGVEFMSINTDAQALRKTSVGTVIQIGGNITKGLGAGANPQVGRDAALEDKERIKEFLTGADMVFIAAGMGGGTGTGAAPVIAEVAKELGILTVAVVTKPFSFEGKKRLAFAEQGIEELSKHVDSLITIPNEKLLKVLGRGITLLEAFASANNVLKNAVQGIAELITRPGMINVDFADVRTVMSEMGHAMMGSGVARGEDRAEEAAEMAISSPLLEDIDLAGARGVLVNITAGLDMRLDEFETVGNTVKAFASDNATVVIGTSLDPDMADEIRVTVVATGIGNEKKPDITLVAGGKSKVAPVSAPVTSRVEEKAAQPLHERVEVKTQPAAAPSHSSASQSVAPKPEKESGYLDIPAFLRRQAD | not soluble
MGSDKIHHHHHHMKEQNNIPTSKVERATKFVQTGAKIGGNYIKHYAKKAFNPELTKEQLHEDNSKDVYETLSQLKGSALKVAQMLSQDKNMLPQAYVDKFTMAQYSAPPLSYPLVVKTFQKYFGKSPESMFDTFERNASNAASIGQVHKATKDGKVFAVKIQYPGVAESVSSDLKLVKPFALRLMNMKEKDLDMYMDEVESKLIEETDYELELRRSNEISTQCAHITGLVFPAYYPEYSSKRILTMDWLEGLHMKEFLATNPSQEIRNQIGQLLWDFYDFQMHQLRTVHADPHPGNFLMRSNGSLGVIDFGCVKEIPEEFYTEYFKLLNKEVIEDKTELLKTFERLNFFDAEDTALQREIFFDLFCEMTHLLGLPFYSETFDFSDDSYFKRIYDFGEHISNVKEIKDARQARGSRHGIYINRTYFGLYNLLNQLGANVRTKSYGEVAIEV | not soluble
MSLRKVRVGIWGFGAMGIGMANMILKKEGIEIVSVCSRSTSGKSMYDVLGIERGERPEVIINKNYEEVFREKSVDVVLLATDSFTKKAFDKIIFLLNRKINVISTAEQMAYPQADDADLAKKMDEVAKENGVSILGTGINPGFVLDLLVLALSGTCEEVTSIKAKRVNDLSPFGKSVMVEQGVGVTREEFIKGVEDKTIAGHVGFVESINMIADGLGWKLDKIEQTKEPIMTTVDRKSKYGEALAGNVAGCRQCGYGYVNGEVLIEMEHPQQIIPEAEGIKTGDYVSIKGIPNIDLQINPEIPGGVGTYAMIVNSIPLIINARPGLKTMLDIPVPRAIMGDIRNQIEVELEEEGHHHHHH | soluble
MKVVELKNVKKIYPDGTIALKGVSLSVEEGEFLGVMGPSGSGKSTLLHLIGGLDKPSEGIVKVFGKEINHLDEDELAEMRKRKIAYVFQFYYLLEDFSVLENLTLIGELAGIKNPKKKALELLDFLRLSHRINHKPYQLSGGEQQRVAIGRALMVEPKLILADEPTGNLDSKEGFRIFELFKELNEKGITFVVATHNDSLKPFFGRIINLRDGEIVTQR | soluble
MAFLSTSVLIKCCILLLAGGLAESLTLGLAPALSTHSSGVSTQSVDLSQIKRGDEIQAHCLTPAETEVTECAGILKDVLSKNLHELQGLCNVKNKMGVPWVSVEELGQEIITGRLPFPSVGGTPVNDLVRVLVVAESNTPEETPEEEFYAYVELQTELYTFGLSDDNVVFTSDYMTVWMIDIPKSYVDVGMLTRATFLEQWPGAKVTVMIPYSSTFTWCGELGAISEESAPQPSLSARSPVCKNSARYSTSKFCEVDGCTAETGMEKMSLLTPFGGPPQQAKMNTCPCYYKYSVSPLPAMDHLILADLAGLDSLTSPVYVMAAYFDSTHENPVRPSSKLYHCALQMTSHDGVWTSTSSEQCPIRLVEGQSQNVLQVRVAPTSMPNLVGVSLMLEGQQYRLEYFGDH | soluble
MAHHHHHHMAIACDSPVITLYKPRENGMIMPCHPEMSTVENIGQITDAHRLVPTAVRFSEDSQWVISAGEDETLAVSSVRKLKRVFVCTEFITRRHCMAFMNTFTSLCILASPPETSVLIIAACATDGTVVQWVVNPATSRSSYTKKLQLHLGALVAMDIMRDGTGS | not soluble
MAAGIVASRRLRDLLTRRLTGSNYPGLSISLRLTGSSAQEEASGVALGEAPDHSYESLRVTSAQKHVLHVQLNRPNKRNAMNKVFWREMVECFNKISRDADCRAVVISGAGKMFTAGIDLMDMASDILQPKGDDVARISWYLRDIITRYQETFNVIERCPKPVIAAVHGGCIGGGVDLVTACDIRYCAQDAFFQVKEVDVGLAADVGTLQRLPKVIGNQSLVNELAFTARKMMADEALGSGLVSRVFPDKEVMLDAALALAAEISSKSPVAVQSTKVNLLYSRDHSVAESLNYVASWNMSMLQTQDLVKSVQATTENKELKTVTFSKL | soluble
MIITIPIKNQKDIGTPSDSVVVLGYFDGIHKGHQELFRVANKAARKDLLPIVVMTFNESPKIALEPYHPDLFLHILNPAERERKLKREGVEELYLLDFSSQFASLTAQEFFATYIKAMNAKIIVAGFDYTFGSDKKTAEDLKNYFDGEVIIVPPVEDEKGKISSTRIRQAILDGNVKEAGKLLGAP | not soluble

From the DeepSol protein solubility set
